Assay [1] addresses T1, EGFR on SKOV3 and Aspc-1 tumor cells (human, UniProt P00533).
T1 construct: endogenous, on the cell surface; the cell line is named under assay; also called tumor cell EGFR
Nature of the assay: flow cytometry on Aspc-1 tumor cells, anti-human IgG PE, MFI, curve fit; unit from the concentration axis and paragraph 62; no upper plateau within the range shown [table]. How it is done: (§1) Two kinds of tumor cells, SKOV3 and Aspc-1, expressing EGFR were respectively plated in 96 well plates, with 3×10⁵ cells per well, and then the tumor cells were incubated with gradient diluted VHH-IgG4 antibody. After incubation on ice for half an hour, anti human IgG PE (Jackson Immuno Research, Code: 109-117-008, Lot:145501) was added for incubation, and then CytoFLEX flow cytometry was used for detection. The EC50 of the antibody was calculated by curve fitting.

The target of assay [2] is T1, EGFR on SKOV3 and Aspc-1 tumor cells. Nature of the assay: flow cytometry on SKOV3 tumor cells, anti-human IgG PE, MFI, curve fit; unit from the concentration axis and paragraph 62 [table]. How it is done: as §1
For assay [3], the target named is T2, human EGFR.His antigen (Acro, Cat #EGR-H522a) (human, UniProt P00533 25-645).
T2 construct: extracellular domain; Bought protein; also called EGFR his tag protein; full-length EGFR extracellular domain protein; not shown: His tag
The assay can be described thus: competition ELISA: EGFR his tag protein coated, antibody titrated together with Human EGF-mouse IgG2a Fc, bound EGF detected with HRP anti-mouse IgG, unit taken from the concentration axis (paragraph 62 says nM); OD450 falls only from about 2.4 to about 2.1 [table]. How it is done: (§2) Briefly, EGFR his tag protein was diluted with PBS to 2 μg/mL, and 100 μL of the antigen was added to each well of an ELISA plate and coated overnight at 4° C. The next day, the plates were washed twice with PBST (containing 0.5% TWEEN-20), and then blocked with 3% BSA at 37° C. for 1.5 h, followed by two washes with PBST. […] VHH-IgG4 antibodies were diluted to 2000 nM and then serially diluted 4-fold for 8 gradients. […] After washing 3 times, HRP goat anti-mouse IgG (Goat anti-Mouse IgG) (H+L) antibody (Abcam, cat #ab205719) diluted at 1:3000 was added to each well, and the plate was incubated at 37° C. for 40 min. The plates were then washed 3 times with PBST, and 100 μL of TMB substrate was added to each well and allowed to react for 3-5 min. The reaction was stopped by adding 100 μL of 3N hydrochloric acid per well. After stopping the reaction, the optical density at 450/650 nm was measured using a Tecan microplate reader. The dose-response curve was plotted, and the IC50 was calculated using GraphPad Prism 8.0 software.

Assay [4] deals with T1, EGFR on SKOV3 and Aspc-1 tumor cells. The assay can be described thus: flow cytometry on Aspc-1 tumor cells, anti-human IgG PE, MFI, curve fit; unit from the concentration axis and paragraph 62 [table]. On the procedure: as §1
In assay [5] the target is T3, EGFR-D4 (F481-S645, P00533-1 (uniprot)) his tag antigen (human, UniProt P00533 481-645).
T3 construct: range 481-645; also called IV domain protein; EGFR-D4 protein; not shown: His tag
Nature of the assay: ELISA: EGFR-D4 his tag antigen coated at 0.5 µg/mL, antibody at 2000, 200, 20, 2 nM, HRP goat anti-human IgG Fc, OD450. How it is done: (2) Protein Binding Epitope Analysis: ELISA was used to determine the binding of VHH-IgG4 antibody to each domain of EGFR extracellular protein. Briefly, EGFR his tag protein, and EGFR-V3-his tag antigen protein were diluted to 1 μg/mL, EGFR-D1D2 (L25-A310, P00533-1 (uniprot)), and EGFR-D4 (F481-S645, P00533-1 (uniprot)) his tag antigen were diluted to 0.5 μg/mL, and each well of an ELISA plate was coated with […] antigen and incubated overnight at 4° C. The next day, the plates were washed twice with PBST (added with 0.5% TWEEN-20), then blocked with 3% BSA at 37° C. for 1.5 h, and then washed twice with PBST. Then, the antibody to be tested was diluted to 50 nM, 5 nM, 0.5 nM, 0.05 nM, and added to the wells coated with EGFR his tag protein or EGFR-V3-his tag antigen at 100 µL/well, respectively. The antibody was diluted to 2000 nM, 200 nM, 20 nM, 2 nM, and added to the wells coated with EGFR his tag protein or EGFR-V3-his tag antigen at 100 µL/well, respectively. The ELISA plates were incubated at 37° C. for 1 h. The plates were then washed three times with PBST, and then 100 μL HRP labeled Goat anti human IgG Fc antibody (1:10000, Bethyl) was added into each well, and incubated at 37° C. for another 40 min. After washing the plates four times with PBST, 100 μL of TMB substrate was added to each well, and the reaction was allowed to proceed for 3-5 min. The reaction was stopped by adding 100 μL of 3N hydrochloric acid per well. After stopping the reaction, the optical density at 450/650 nm was measured using a Tecan microplate reader.

Assay [6] deals with T2, human EGFR.His antigen (Acro, Cat …). The assay can be described thus: competition ELISA: EGFR his tag protein coated, antibody titrated together with Human EGF-mouse IgG2a Fc, bound EGF detected with HRP anti-mouse IgG, unit taken from the concentration axis (paragraph 62 says nM); OD450 falls from about 2.4 to a plateau of about 0.4 [table]. How it is done: as §2
Assay [7] concerns the target T1, EGFR on SKOV3 and Aspc-1 tumor cells. Nature of the assay: flow cytometry on SKOV3 tumor cells, anti-human IgG PE, MFI, curve fit; unit from the concentration axis and paragraph 62; the curve is barely above Isotype 2: MFI about 1800 at about 250 nM, no plateau [table]. On the procedure:
as §1

Assay [8] deals with T2, human EGFR.His antigen (Acro, Cat …). Nature of the assay: competition ELISA: EGFR his tag protein coated, antibody titrated together with Human EGF-mouse IgG2a Fc, bound EGF detected with HRP anti-mouse IgG, unit taken from the concentration axis (paragraph 62 says nM); the curve does not fall (OD450 about 2.4 to 2.65), no blocking, so the fit is not meaningful [table]. On the procedure: as §2

B1: E005 VHH-IgG4 antibody (antibody, V domains shown)
VH: QVQLVESGGGLVQPGGSLRLSCEASGFAFSDYTMRWHRQAAGKELELVAYITSAGDIIKYANSVRGRFTISRDNAKNTLYLQMDSLKPEDTAVYRCNALVSASVRASDYWGQGTLVTVSS
notes: VHH fused to IgG4 (VHH-IgG4), expressed in ExpiCHO, protein A purified; not shown: human IgG4 constant part from the pCDNA3.4-IgG4 vector
For B1, the EC50 in assay [1] is 15 nM; in assay [2], 9.7 nM.

B2: E007 VHH-IgG4 antibody (antibody, V domains shown, not shown: a dimerising Fc or GST)
VH: EVQLVESGGGLVQPGGSLRLSCEASGFSFSDHTMRWHRQAAGKNLELVAYITPAGDIIKYADSVQGRFTISRDNAKNMLYLQMDSLRPDDTAVYRCNALVSAAVRASDYWGQGTQVTVSS
Consider B2, for which the EC50 in assay [1] amounted to 39 nM; in assay [2] it was 14 nM.

B3: E002 VHH-IgG4 antibody (antibody, V domains shown)
VH: QVQLVESGGGLVQAGGSLRLSCAASGFTFSDYAVSWYRQAPGKEREFVARITGTGETSRYEDSVKGRFAISRDNVKNTAYLQMNSLKPEDTAVYYCSIYHPPRDYWGQGTQVTVSS
notes: as for B1
As for B3, the EC50 is 2.3 nM in assay [2] and 3.7 nM in assay [4]. Moreover, in assay [3], the IC50 stood at 0.038 mg/L. Further, in assay [5], the binding result is given as “no binding (tested: 2000 nM)”.

B4: E008 VHH-IgG4 antibody (antibody, V domains shown)
VH: EVQVVESGGGLVQSGGSLTLSCTSSGLPLLDYAIGWFRQAPGKEREAVSAISISEGSTYYTDSVRGRFTISRDNNKNKVYLRMDNLKPEDTAVYYCAADKTDIGFWLLVGGAGGGEVRYEYWGQGTQVTVSS
notes: as for B1
As for B4, the EC50 in assay [2] turned out to be 1.1 nM; in assay [4] it was 1.5 nM. In addition, the IC50 in assay [6] was 0.056 mg/L. The binding result in assay [5] is “no binding (tested: 2000 nM)”.

B5: E004 VHH-IgG4 antibody (antibody, V domains shown, not shown: a dimerising Fc or GST)
VH: EVQLVESGGGLAQSGGSLRLACEASGFPFETYAMSWARQTPGNEPEWVAGIFPDGKHTAYAHSVKGRFTISRVNANNTVYLQMDSLKPEDTAVYYCAKDLPFFATPSFYIGYWGQGTLVTVSS
Take B5: the EC50 in assay [7] came out at 245 nM. Moreover, the IC50 in assay [8] is ~22.8 mg/L.

B6: E003 VHH-IgG4 antibody (antibody, V domains shown, not shown: a dimerising Fc or GST)
VH: QVQLVESGGGLVQPGGSLRLSCVASGGVFSSYAMGWYRQVPGKLRELVATITSGHSTTYADIVRGRFTISRDNTKNTVYLQMNRLEPDDTAVYYCNRSPYTPGNWGQGTLVTVSS
With B6, the EC50 in assay [1] was 17 nM; in assay [2] it was 6.5 nM. Also, the half-inhibitory concentration (IC50) in assay [3] stood at 0.084 mg/L.

Values taken from patent US20250215092A1 (ZHEJIANG NANOMAB TECHNOLOGY CENTER, published 2025).
